{
  "source": "the supplement of paper PMC9112550",
  "about": "“Optimization of the antimicrobial peptide Bac7 by deep mutational scanning” (BMC Biology, 2022);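 also: peptides expressed intracellularly from a pBAD plasmid library in pooled LB shake-flask culture, induced with 0.3% L-arabinose, DNA abundance read by NGS, three biological replicates, DESeq2 with apeglm shrinkage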",
  "data": [
    {"system": "Escherichia coli TOP10", "experiment": "shrunken log2 fold change of peptide-encoding DNA abundance (4.5 h post-induction vs induction); higher = less antimicrobial activity (less host growth inhibition)", "conditions": "time post-induction: 4.5 h; library: site-saturation at positions 5, 18, 19, 20", "values": [
      {"sequence": "RRIRGRPPRLPRPRPRPQTPPRP", "shrunken log2 fold change": 1.36},
      {"sequence": "RRIRGRPPRLPRPRPRPQTRPRP", "shrunken log2 fold change": 1.12},
      {"sequence": "RRIRGRPPRLPRPRPRPQVEPRP", "shrunken log2 fold change": -0.0312},
      {"sequence": "RRIRGRPPRLPRPRPRPQWWPRP", "shrunken log2 fold change": 0.53},
      {"sequence": "RRIRGRPPRLPRPRPRPQYCPRP", "shrunken log2 fold change": 0.192},
      {"sequence": "RRIRGRPPRLPRPRPRPQYPPRP", "shrunken log2 fold change": -0.865},
      {"sequence": "RRIRGRPPRLPRPRPRPRDVPRP", "shrunken log2 fold change": 0.654},
      {"sequence": "RRIRGRPPRLPRPRPRPREHPRP", "shrunken log2 fold change": 0.783},
      {"sequence": "RRIRGRPPRLPRPRPRPRFEPRP", "shrunken log2 fold change": 0.881},
      {"sequence": "RRIRGRPPRLPRPRPRPRFIPRP", "shrunken log2 fold change": 0.123},
      {"sequence": "RRIRGRPPRLPRPRPRPRHLPRP", "shrunken log2 fold change": 0.221},
      {"sequence": "RRIRGRPPRLPRPRPRPRHPPRP", "shrunken log2 fold change": 0.442},
      {"sequence": "RRIRGRPPRLPRPRPRPRIVPRP", "shrunken log2 fold change": 0.824},
      {"sequence": "RRIRGRPPRLPRPRPRPRKMPRP", "shrunken log2 fold change": 0.949},
      {"sequence": "RRIRGRPPRLPRPRPRPRLKPRP", "shrunken log2 fold change": 0.777},
      {"sequence": "RRIRGRPPRLPRPRPRPRMDPRP", "shrunken log2 fold change": 0.59},
      {"sequence": "RRIRGRPPRLPRPRPRPRMEPRP", "shrunken log2 fold change": 0.483},
      {"sequence": "RRIRGRPPRLPRPRPRPRMIPRP", "shrunken log2 fold change": 0.646},
      {"sequence": "RRIRGRPPRLPRPRPRPRPDPRP", "shrunken log2 fold change": 0.94},
      {"sequence": "RRIRGRPPRLPRPRPRPRQEPRP", "shrunken log2 fold change": 0.527},
      {"sequence": "RRIRGRPPRLPRPRPRPRQKPRP", "shrunken log2 fold change": 1.43},
      {"sequence": "RRIRGRPPRLPRPRPRPRRIPRP", "shrunken log2 fold change": 0.451},
      {"sequence": "RRIRGRPPRLPRPRPRPRRQPRP", "shrunken log2 fold change": 0.85},
      {"sequence": "RRIRGRPPRLPRPRPRPRSHPRP", "shrunken log2 fold change": 0.239},
      {"sequence": "RRIRGRPPRLPRPRPRPRSQPRP", "shrunken log2 fold change": 1.13},
      {"sequence": "RRIRGRPPRLPRPRPRPRSVPRP", "shrunken log2 fold change": 0.662},
      {"sequence": "RRIRGRPPRLPRPRPRPRSYPRP", "shrunken log2 fold change": 0.288},
      {"sequence": "RRIRGRPPRLPRPRPRPRTIPRP", "shrunken log2 fold change": 0.375},
      {"sequence": "RRIRGRPPRLPRPRPRPRTPPRP", "shrunken log2 fold change": 1.18},
      {"sequence": "RRIRGRPPRLPRPRPRPRVCPRP", "shrunken log2 fold change": 1.1},
      {"sequence": "RRIRGRPPRLPRPRPRPRVIPRP", "shrunken log2 fold change": 0.227},
      {"sequence": "RRIRGRPPRLPRPRPRPRVQPRP", "shrunken log2 fold change": 0.218},
      {"sequence": "RRIRGRPPRLPRPRPRPRWQPRP", "shrunken log2 fold change": 0.994},
      {"sequence": "RRIRGRPPRLPRPRPRPSAVPRP", "shrunken log2 fold change": 1.39},
      {"sequence": "RRIRGRPPRLPRPRPRPSCEPRP", "shrunken log2 fold change": 0.507},
      {"sequence": "RRIRGRPPRLPRPRPRPSCIPRP", "shrunken log2 fold change": 0.423},
      {"sequence": "RRIRGRPPRLPRPRPRPSDAPRP", "shrunken log2 fold change": 0.264},
      {"sequence": "RRIRGRPPRLPRPRPRPSEYPRP", "shrunken log2 fold change": -0.0981},
      {"sequence": "RRIRGRPPRLPRPRPRPSFDPRP", "shrunken log2 fold change": 0.44},
      {"sequence": "RRIRGRPPRLPRPRPRPSGVPRP", "shrunken log2 fold change": 0.633},
      {"sequence": "RRIRGRPPRLPRPRPRPSHKPRP", "shrunken log2 fold change": -0.157},
      {"sequence": "RRIRGRPPRLPRPRPRPSILPRP", "shrunken log2 fold change": 1.03},
      {"sequence": "RRIRGRPPRLPRPRPRPSINPRP", "shrunken log2 fold change": -0.0752},
      {"sequence": "RRIRGRPPRLPRPRPRPSIYPRP", "shrunken log2 fold change": 0.302},
      {"sequence": "RRIRGRPPRLPRPRPRPSKCPRP", "shrunken log2 fold change": -0.313},
      {"sequence": "RRIRGRPPRLPRPRPRPSLFPRP", "shrunken log2 fold change": 0.442},
      {"sequence": "RRIRGRPPRLPRPRPRPSLHPRP", "shrunken log2 fold change": 0.316},
      {"sequence": "RRIRGRPPRLPRPRPRPSLSPRP", "shrunken log2 fold change": 0.576},
      {"sequence": "RRIRGRPPRLPRPRPRPSNHPRP", "shrunken log2 fold change": -0.145},
      {"sequence": "RRIRGRPPRLPRPRPRPSPCPRP", "shrunken log2 fold change": -0.0911},
      {"sequence": "RRIRGRPPRLPRPRPRPSPGPRP", "shrunken log2 fold change": 0.732},
      {"sequence": "RRIRGRPPRLPRPRPRPSPYPRP", "shrunken log2 fold change": -0.148},
      {"sequence": "RRIRGRPPRLPRPRPRPSQHPRP", "shrunken log2 fold change": 0.0187},
      {"sequence": "RRIRGRPPRLPRPRPRPSRAPRP", "shrunken log2 fold change": 0.553},
      {"sequence": "RRIRGRPPRLPRPRPRPSREPRP", "shrunken log2 fold change": 0.51},
      {"sequence": "RRIRGRPPRLPRPRPRPSRHPRP", "shrunken log2 fold change": 0.0789},
      {"sequence": "RRIRGRPPRLPRPRPRPSVHPRP", "shrunken log2 fold change": -0.00458},
      {"sequence": "RRIRGRPPRLPRPRPRPSYEPRP", "shrunken log2 fold change": 0.0732},
      {"sequence": "RRIRGRPPRLPRPRPRPTAFPRP", "shrunken log2 fold change": 1.19},
      {"sequence": "RRIRGRPPRLPRPRPRPTAYPRP", "shrunken log2 fold change": 0.656},
      {"sequence": "RRIRGRPPRLPRPRPRPTDIPRP", "shrunken log2 fold change": 0.114},
      {"sequence": "RRIRGRPPRLPRPRPRPTDRPRP", "shrunken log2 fold change": 0.0231},
      {"sequence": "RRIRGRPPRLPRPRPRPTDVPRP", "shrunken log2 fold change": 0.307},
      {"sequence": "RRIRGRPPRLPRPRPRPTECPRP", "shrunken log2 fold change": 0.267},
      {"sequence": "RRIRGRPPRLPRPRPRPTEEPRP", "shrunken log2 fold change": 0.525},
      {"sequence": "RRIRGRPPRLPRPRPRPTEPPRP", "shrunken log2 fold change": 0.716},
      {"sequence": "RRIRGRPPRLPRPRPRPTEWPRP", "shrunken log2 fold change": 1.23},
      {"sequence": "RRIRGRPPRLPRPRPRPTFHPRP", "shrunken log2 fold change": 0.366},
      {"sequence": "RRIRGRPPRLPRPRPRPTFTPRP", "shrunken log2 fold change": 0.638},
      {"sequence": "RRIRGRPPRLPRPRPRPTFVPRP", "shrunken log2 fold change": 0.782},
      {"sequence": "RRIRGRPPRLPRPRPRPTGAPRP", "shrunken log2 fold change": 1.31},
      {"sequence": "RRIRGRPPRLPRPRPRPTGFPRP", "shrunken log2 fold change": 1.23},
      {"sequence": "RRIRGRPPRLPRPRPRPTGMPRP", "shrunken log2 fold change": 0.851},
      {"sequence": "RRIRGRPPRLPRPRPRPTGTPRP", "shrunken log2 fold change": 0.517},
      {"sequence": "RRIRGRPPRLPRPRPRPTHPPRP", "shrunken log2 fold change": 0.868}
    ]}
  ]
}
